According to patent EP2545075B1 (NovelMed Therapeutics, Inc., dated 2020):

Tests used:
[1] = molecular target: T1, human properdin (human, UniProt P27918 28-469); assay: cell-based or functional assay
[2] = molecular target: T1, human properdin; assay: Competition ELISA: properdin (50 nM) plus antibody on C3b-coated wells
[3] = molecular target: T1, human properdin; assay: Properdin ELISA
[4] = molecular target: T1, human properdin; assay: Properdin binding assay (Fig. 27)

T1 sequence (P27918 28-469 limits assumed): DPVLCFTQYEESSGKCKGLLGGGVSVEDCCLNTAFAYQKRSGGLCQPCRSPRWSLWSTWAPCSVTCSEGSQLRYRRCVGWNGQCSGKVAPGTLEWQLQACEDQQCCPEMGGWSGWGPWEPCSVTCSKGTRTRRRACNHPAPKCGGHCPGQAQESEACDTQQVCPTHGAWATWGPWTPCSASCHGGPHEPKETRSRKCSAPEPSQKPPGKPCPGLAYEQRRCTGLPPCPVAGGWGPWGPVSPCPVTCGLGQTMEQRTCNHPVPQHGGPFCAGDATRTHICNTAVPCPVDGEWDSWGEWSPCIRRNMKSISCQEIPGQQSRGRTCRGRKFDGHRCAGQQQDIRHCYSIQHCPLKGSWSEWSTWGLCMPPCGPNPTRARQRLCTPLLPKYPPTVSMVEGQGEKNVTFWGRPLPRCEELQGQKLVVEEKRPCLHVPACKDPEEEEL

B1: NM9401-IgG (antibody, V domains shown)
VH: QVQLQQSAPELARPGASVKMSCTASGYIFTNYPIHWVKQRPGQGLEWIGFIDPGGGYDEPDERFRDRATLTADKSSSTAYMQLSSLTSEDSAIYYCARRGGGYYLDYWGQGTTLTVSS
VL: DIQMTQTTSSLSASLGDRVTISCRASQDISFFLNWYQQKPDGTVKLLIYYTSRYHSGVPSRFSGSGSGTDFSLTINNLEQEDFATYFCQHGNTLPWTFGGGTKLEIK
modifications: Biotinylated in Example 5 (site not stated).
Question: With B1 as the binder, how does the “IC50 of inhibition in erythrocyte lysis assay using rabbit erythrocytes” value [1] read?
Answer: Its value is 20 to 30 nM.

B2: NM9401-F(ab')2 (other)
VH: QVQLQQSAPELARPGASVKMSCTASGYIFTNYPIHWVKQRPGQGLEWIGFIDPGGGYDEPDERFRDRATLTADKSSSTAYMQLSSLTSEDSAIYYCARRGGGYYLDYWGQGTTLTVSS
VL: DIQMTQTTSSLSASLGDRVTISCRASQDISFFLNWYQQKPDGTVKLLIYYTSRYHSGVPSRFSGSGSGTDFSLTINNLEQEDFATYFCQHGNTLPWTFGGGTKLEIK
modifications: F(ab')2 has two identical arms joined by hinge disulfides. The letters give one arm's variable domains.
notes: F(ab')2 fragment of the murine antibody NM9401; also called anti-properdin F(ab')2
Question: B2 was tested. Which IC50 [2] did it give?
Answer: The IC50 was 29 nM.

Question: What about the “molar ratio of antibody to properdin” value [2] of the same binder?
Answer: The value was 0.5.

B3: BAP010_1 (antibody, IgG1, V domains shown)
VH: QVQLQQSAPELARPGASVKMSCTASGYIFTNYPIHWVKQRPGQGLEWIGFIDPGGGYDEPDERFRDRATLTADKSSSTAYMQLSSLTSEDSAIYYCARRGGGYYLDYWGQGTTLTVSS
VL: DIQMTQTTSSLSASLGDRVTISCRASQDISFFLNWYQQKPDGTVKLLIYYTSRYHSGVPSRFSGSGSGTDFSLTINNLEQEDFATYFCQHGNTLPWTFGGGTKLEIK
notes: Chimeric full-length IgG1/kappa carrying the variable domains of NM9401, expressed in CHO-S cells; also called chimeric anti-properdin monoclonal antibody; recombinant antibody BAP010_1
Question: Which Kd [3] does the source give for B3 here?
Answer: Its Kd is about 0.054 nM.

Question: What about the “IC50 of inhibition in erythrocyte lysis assay using rabbit erythrocytes” value [1] of the same binder?
Answer: The value was 20 to 30 nM.

B4: NM9401-Fab (Fab, V domains shown)
VH: QVQLQQSAPELARPGASVKMSCTASGYIFTNYPIHWVKQRPGQGLEWIGFIDPGGGYDEPDERFRDRATLTADKSSSTAYMQLSSLTSEDSAIYYCARRGGGYYLDYWGQGTTLTVSS
VL: DIQMTQTTSSLSASLGDRVTISCRASQDISFFLNWYQQKPDGTVKLLIYYTSRYHSGVPSRFSGSGSGTDFSLTINNLEQEDFATYFCQHGNTLPWTFGGGTKLEIK
notes: Fab fragment of the murine antibody NM9401; also called anti-properdin Fab
Question: How did the IC50 [2] turn out when B4 was run?
Answer: Its IC50 is 72 nM.

Question: What about the “molar ratio of antibody to properdin” value [2] of the same binder?
Answer: Its value is 1.2.

B5: BAP010hum03 (antibody, human IgG1, V domains shown)
VH: EVQLVQSGAEVKKPGESLRISCKGSGYIFTNYPIHWIRQSPSRGLEWLGFIDPGGGYDEPDERFRDRVTISADKSISTAYLQWSSLKASDTAMYYCARRGGGYYLDYWGQG
VL: DIQMTQSPSSLSASVGDRVTITCRASQDISFFLNWYQQKPGKAPKLLIYYTSRYHSGVPSRFSGSGSGTEFTLTISSLQSEDFAVYYCQHGNTLPWTFGQG
notes: Humanized clone; The variable domains were cloned into the mammalian expression vector used for human IgG1/kappa; also called BAP010hum03_HC
Question: Does B5 bind [4]?
Answer: Result: binds

B6: BAP010hum10 (antibody, human IgG1, V domains shown)
VH: QVQLQESGPGLVKPSQTLSLTCTVSGYIFTNYPIHWVRQATGQGLEWMGFIDPGGGYDEPDERFRDRVTITADKSTSTAYMELSSLRSEDTAVYYCARRGGGYYLDYWGQG
VL: DIQMTQSPSSLSASVGDRVTITCRASQDISFFLNWYQQKPGKAPKLLIYYTSRYHSGIPPRFSGSGYGTEFTFTISSLEAEDAATYYCQHGNTLPWTFGQG
notes: Humanized clone; The variable domains were cloned into the mammalian expression vector used for human IgG1/kappa; also called BAP010hum10_HC
Question: Does B6 bind [4]?
Answer: Result: binds

B7: BAP010hum02 (antibody, human IgG1, V domains shown)
VH: QVQLQESGPGLVKPSQTLSLTCTVSGYIFTNYPIHWVRQAPGKGLEWVSFIDPGGGYDEPDERFRDRVTISVDTSKNQFSLKLSSVTAADTAVYYCARRGGGYYLDYWGQG
VL: EIVLTQSPATLSLSPGERATLSCRASQDISFFLNWFQQRPGQSPRRLIYYTSRYHSGIPPRFSGSGYGTDFTLTINNIESEDAAYYFCQHGNTLPWTFGQG
notes: Humanized clone; The variable domains were cloned into the mammalian expression vector used for human IgG1/kappa; also called BAP010hum02_HC
Question: Does B7 bind [4]?
Answer: Result: binds
